Peptide exchange yield data for 69 molecules are collected here from patent US20220249633A1.

B1: … (SEQ ID NO: 291) (peptide)
peptide: YYLGSGRETF
B2: … (SEQ ID NO: 257) (peptide)
peptide: IFIDNSTQPLHF
B3: … (SEQ ID NO: 226) (peptide)
peptide: MYLKLVQLF
B4: … (SEQ ID NO: 268) (peptide)
peptide: IFITKALQI
B5: … (SEQ ID NO: 252) (peptide)
peptide: AFGQETNVPLNNF
B6: … (SEQ ID NO: 261) (peptide)
peptide: GYIKLINFI
B7: … (SEQ ID NO: 283) (peptide)
peptide: EYQEIFQQL
B8: … (SEQ ID NO: 237) (peptide)
peptide: KYVGQLAVL
B9: … (SEQ ID NO: 256) (peptide)
peptide: VFGKSAYLF
B10: … (SEQ ID NO: 228) (peptide)
peptide: IYQYVADNF
B11: … (SEQ ID NO: 241) (peptide)
peptide: SYVKVLHHL
B12: … (SEQ ID NO: 276) (peptide)
peptide: QYLDVLHAL
B13: … (SEQ ID NO: 231) (peptide)
peptide: AFADVSVKF
B14: … (SEQ ID NO: 275) (peptide)
peptide: KYGTLDVTF
B15: … (SEQ ID NO: 282) (peptide)
peptide: NYLVDPVTI
B16: … (SEQ ID NO: 287) (peptide)
peptide: IYNPNLLTASKF
B17: … (SEQ ID NO: 224) (peptide)
peptide: PYFFANQEF
B18: … (SEQ ID NO: 262) (peptide)
peptide: VYSSQFETI
B19: … (SEQ ID NO: 281) (peptide)
peptide: NYSPGLVSLIL
B20: … (SEQ ID NO: 253) (peptide)
peptide: IYGFFNENF
B21: … (SEQ ID NO: 229) (peptide)
peptide: IYQFVADSF
B22: … (SEQ ID NO: 274) (peptide)
peptide: KQLDIANYELF
B23: … (SEQ ID NO: 285) (peptide)
peptide: VYVGDALLHAI
B24: … (SEQ ID NO: 255) (peptide)
peptide: VYQKIILKF
B25: … (SEQ ID NO: 246) (peptide)
peptide: KYLSVQLTL
B26: … (SEQ ID NO: 264) (peptide)
peptide: LYTETRLQF
B27: … (SEQ ID NO: 258) (peptide)
peptide: AYAQLGYLL
B28: … (SEQ ID NO: 248) (peptide)
peptide: AFPTFSVQL
B29: … (SEQ ID NO: 286) (peptide)
peptide: SYGTILSHI
B30: … (SEQ ID NO: 284) (peptide)
peptide: DYLKDPVTI
B31: … (SEQ ID NO: 239) (peptide)
peptide: VYAIFRILL
B32: … (SEQ ID NO: 292) (peptide)
peptide: FYPQIINTF
B33: … (SEQ ID NO: 270) (peptide)
peptide: YYSQESKVLYL
B34: … (SEQ ID NO: 247) (peptide)
peptide: SFTKTSPNF
B35: … (SEQ ID NO: 259) (peptide)
peptide: YFIKSPPSQLF
B36: … (SEQ ID NO: 266) (peptide)
peptide: KYTDWTEFL
B37: … (SEQ ID NO: 289) (peptide)
peptide: FFHEGQYVF
B38: … (SEQ ID NO: 263) (peptide)
peptide: RYILENHDF
B39: … (SEQ ID NO: 277) (peptide)
peptide: FYTFPFQQL
B40: … (SEQ ID NO: 249) (peptide)
peptide: RYHPTTCTI
B41: … (SEQ ID NO: 235) (peptide)
peptide: VYKDSIYYI
B42: … (SEQ ID NO: 271) (peptide)
peptide: RFLMKSYSF
B43: … (SEQ ID NO: 227) (peptide)
peptide: IYRFITERF
B44: … (SEQ ID NO: 243) (peptide)
peptide: SYLELANTL
B45: … (SEQ ID NO: 267) (peptide)
peptide: SFLNIEKTEILF
B46: … (SEQ ID NO: 269) (peptide)
peptide: QYPYLQAFF
B47: … (SEQ ID NO: 273) (peptide)
peptide: IYGEKLQFIF
B48: … (SEQ ID NO: 234) (peptide)
peptide: SYLPAIWLL
B49: … (SEQ ID NO: 272) (peptide)
peptide: RYVFPLPYL
B50: … (SEQ ID NO: 294) (peptide)
peptide: RFPVQGTVTF
B51: … (SEQ ID NO: 265) (peptide)
peptide: SYLNEAFSF
B52: … (SEQ ID NO: 260) (peptide)
peptide: VYMNVMTRL
B53: … (SEQ ID NO: 242) (peptide)
peptide: VYGEPRELL
B54: … (SEQ ID NO: 250) (peptide)
peptide: KYPDIASPTF
B55: … (SEQ ID NO: 232) (peptide)
peptide: YYLSDSPLL
B56: … (SEQ ID NO: 244) (peptide)
peptide: VHFEDTGKTLLF
B57: … (SEQ ID NO: 233) (peptide)
peptide: QYLTAAALHNL
B58: … (SEQ ID NO: 293) (peptide)
peptide: VYPHFSTTNLI
B59: … (SEQ ID NO: 230) (peptide)
peptide: TYGMVMVTF
B60: … (SEQ ID NO: 279) (peptide)
peptide: VWLPASVLF
B61: … (SEQ ID NO: 288) (peptide)
peptide: VYPDTVALTF
B62: … (SEQ ID NO: 254) (peptide)
peptide: KYLESSATF
B63: … (SEQ ID NO: 236) (peptide)
peptide: VYLPKIPSW
B64: … (SEQ ID NO: 251) (peptide)
peptide: VYTKALSSL
B65: … (SEQ ID NO: 245) (peptide)
peptide: LYPQLFVVL
B66: … (SEQ ID NO: 280) (peptide)
peptide: TYNPNLQDKL
B67: … (SEQ ID NO: 290) (peptide)
peptide: KYGDFKLLEF
B68: … (SEQ ID NO: 240) (peptide)
peptide: YYFFVQEKI
B69: … (SEQ ID NO: 225) (peptide)
peptide: TYTNTLERL

Where only a bound is given, the exact number is not on record here.

For this assay, the target named is HLA-A*24 (human). The assay is described as follows: UV-exchange ELISA, exchange yield grade. On the technique in general: In an ELISA, binding on a coated surface is turned into a signal by an enzyme label.
B1: the peptide exchange yield was 50 to 75%.
B2 displayed a peptide exchange yield of 50 to 75%.
In the case of B3, the peptide exchange yield is 20 to 49%.
The molecule B4 displayed a peptide exchange yield of 20 to 49%.
The same measure for B5: > 75%; for B6: > 75%.
With B7 the figure was 50 to 75%; with B8, 50 to 75%; with B9, 50 to 75%.
The same measure for B10: 50 to 75%; for B11: 50 to 75%.
In the case of B12, the peptide exchange yield was > 75%.
On to B13, for which the peptide exchange yield was > 75%.
B14: the peptide exchange yield is > 75%.
The same measure for B15: 50 to 75%; for B16: 50 to 75%; for B17: 50 to 75%.
For B18, the peptide exchange yield was > 75%.
The same measure for B19: 50 to 75%.
With B20 the figure was 50 to 75%; with B21, 50 to 75%.
The same measure for B22: > 75%; for B23: 50 to 75%.
B24 displayed a peptide exchange yield of 50 to 75%.
The molecule B25 had a peptide exchange yield of 20 to 49%.
The same measure for B26: > 75%.
The same measure for B27: 50 to 75%.
The same measure for B28: > 75%; for B29: > 75%.
On to B30, for which the peptide exchange yield lay within 50 to 75%.
With B31 the figure was 50 to 75%; with B32, > 75%.
In turn, B33 displayed a peptide exchange yield of 50 to 75%.
The same measure for B34: 50 to 75%.
The same measure for B35: 20 to 49%; for B36: 50 to 75%; for B37: > 75%.
With B38 the figure was 50 to 75%; with B39, 50 to 75%; with B40, > 75%.
Consider B41, for which the peptide exchange yield is 50 to 75%.
The same measure for B42: > 75%.
With B43 the figure was 50 to 75%.
B44 displayed a peptide exchange yield of 50 to 75%.
The same measure for B45: 20 to 49%.
The same measure for B46: 50 to 75%; for B47: 50 to 75%.
Molecule B48 had a peptide exchange yield of 50 to 75%.
In the case of B49, the peptide exchange yield is > 75%.
The same measure for B50: 50 to 75%; for B51: > 75%; for B52: > 75%.
With B53 the figure was 50 to 75%; with B54, 20 to 49%.
With B55 the figure was 50 to 75%; with B56, 50 to 75%.
The molecule B57 registered a peptide exchange yield of 50 to 75%.
With B58 the figure was > 75%.
The same measure for B59: 50 to 75%; for B60: 50 to 75%.
B61: the peptide exchange yield is 20 to 49%.
B62 showed a peptide exchange yield of 50 to 75%.
Molecule B63 showed a peptide exchange yield of 50 to 75%.
As for B64, the peptide exchange yield was in the range of 50 to 75%.
As for B65, the peptide exchange yield lay in the range of 50 to 75%.
The same measure for B66: > 75%; for B67: > 75%.
In turn, B68 showed a peptide exchange yield of 50 to 75%.
With B69 the figure was 50 to 75%.
